Experimental findings from US20220387579A1 are described below.

This test concerns the target RSV F A strain Viral Protein (Respiratory Syncytial Virus A strain). Kind of test: SPR.

Palivizumab gave a Kd of 0.26 nM.

What is called Kd is the concentration at which binding is half-saturated. The low end stands for tighter binding, the high end for weaker binding.
